Assay results taken from the supplement of paper PMC9170038.

Test system: MS2 coat protein
Assay: apparent KD of MS2 coat protein; designed switch direction (-1 OFF switch, 1 ON switch): -1; higher = weaker reporter binding
Method in brief: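 Each step of the titration lasted 0.8–1.5 h at the lowest concentration and 10–20 min at the highest. The protein, SNAP-549-labelled MS2 coat protein, went from 0.7 or 1.5 nM doubling to 3 µM over RNA switches transcribed on Illumina chips by stalled E. coli RNA polymerase. Normalised cluster fluorescence was curve-fitted, and the per-design median over clusters is given as apparent KD.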

[1] = Eterna round: R95, input ligand: microRNA oligo, concentration not stated
[2] = Eterna round: R95, input ligand: FMN 200 uM
[3] = Eterna round: R95, input ligand: none
[4] = input ligand: microRNA oligo, concentration not stated

Sequence	apparent KD of MS2 coat protein (input ligand: FMN 200 uM) [nM]	apparent KD of MS2 coat protein (input ligand: none) [nM]	apparent KD of MS2 coat protein [1] [nM]	apparent KD of MS2 coat protein [2] [nM]	apparent KD of MS2 coat protein [3] [nM]	apparent KD of MS2 coat protein [4] [nM]
UCGUGUAUAGAGGAUAUAUUAUUUUUUAAAACAAUAGAAGGCUAAACAUGAGGAUCACCCAUGUAUUUGGUUUU [JR_Ex6_Sub053] (Eterna round: R97, puzzle: Exclusion 6)	82.1	19.6				
CCAGGCUGUGUGAGGAUAUGCUGGUCCUUGGAUCAGCAGAAGGCACAUGAGGAUCACCCAUGUGAGUAGCUUGG [JL bmx4 3.27] (puzzle: Brourd's mod of Exclusion 4)			15.7			
CAUGUCUGAGGAUAUCGUUUUUUGUACAUGAGGAUCACCCAUGUCCUAUUUUUUUUAUUUCGAGAAGGCAGUGUAU [JR_E5_Sub092] (puzzle: Exclusion 5)			32.6			
AGAUGUUAAGAGGAUAUCAGCCGAAACCGGCAGUGAGAAGGCUUGACAUGAGGAUCACCCAUGUUUUGCGGUAA [Intebiabe] (Eterna round: R97, puzzle: Exclusion 6)	300	35.6				
AAAAUGUGAGGAUAUCCAAUAUAUGACAUGAGGAUCACCCAUGUUUCCACUCGUACCUCCGGAGAAGGCACUAAAA [Ex5 #42] (Eterna round: R97, puzzle: Exclusion 5)	21.9	29				
AAUACAAGCUAUUGAUCCCACAUGAGGAUCACCCAUGUAGGUGGCGGUGACACCUCCUUUACGAUAGCUCGUCUUAU [Sensor-V1 #54] (Eterna round: R97, puzzle: Sensor, turn-off variant 1)	141	226				
GAUCAUGCAGGAUAUACAUAAACCAUGAAAACAUGGAUCAAACAUGAGGAUCACCCAUGUAGAAGGGCAUGAUC [Omei Ex2 A20] (Eterna round: R97, puzzle: Exclusion 2)	42	24.1				
GUUAAACAUGAGGAUCACCCAUGUAAGGAUAUGCUGAGGUCGCGCUGACGUGAAUGAAGCAGAAGGUACAAAUG [Mat - Mod of JL D63] (puzzle: Exclusion 1)			76.7	79.5	60.8	
AAGAAGAAGUAAGGAUAUGAAGAUCUGGUGGUGACAUGAGGAUCACCCAUGUGAAAACGAUGAGAUCAGAAGGUACAAGAAGAA [AK ExNG2-3.4] (Eterna round: R96, puzzle: Exclusion NG 2)	86.4	77.8				65.3
UUUUUCUGUGUGAGGAUAUACUUUGUUUGGUCGUUGUAGAAGGCACAUGAGGAUCACCCAUGUAGUUUGUUGUG [JR_BME4_Sub013] (puzzle: Brourd's mod of Exclusion 4)			23			
GUCCUCUUGACAUGAGGAUCACCCAUGUUUUAUUUGUUAACUGAGGAUAUACUCUUAUUUUUUAUGUAGAAGGCAGUUUUGUUC [JR_ExcNG3_Sub023] (Eterna round: R96, puzzle: Exclusion NG 3)	82.6	26.3				22
CUGAUGUCAGGAUAUCGGUGGCUCACUUGUGUGUGCCAGUUCGAGAAGGGACAUGAGGAUCACCCAUGUUUUUA [Exclusion 4 (Mod2 of #36 by Marzena11)] (Eterna round: R97, puzzle: Exclusion 4)	486	75.2				
UCAUGUAUGUAGGAUAUCGAUGUCGAAAGACAUCGAGAAGGACGUACAUGAGGAUCACCCAUGUAACUUGCAUG [Exclusion 6 - B - 11:a] (puzzle: Exclusion 6)			18.8	12.9	12.9	
GACAUGAGGAUCACCCAUGUAAGGGAUGAACUUCUGGGUAGCUAGGAUAUGGCUACAAAGGUGGACCAGAAGGAGCGUACCCUU [Amaqura] (Eterna round: R96, puzzle: Exclusion NG 3)	10.6	28.6				14.3
